Data published in publication doi:10.1101/2024.02.19.580884 (bioRxiv, 2024).

T1: 6xHis-AccC (Bacillus subtilis 168, UniProt P49787 1-450)
T1 sequence (looked up): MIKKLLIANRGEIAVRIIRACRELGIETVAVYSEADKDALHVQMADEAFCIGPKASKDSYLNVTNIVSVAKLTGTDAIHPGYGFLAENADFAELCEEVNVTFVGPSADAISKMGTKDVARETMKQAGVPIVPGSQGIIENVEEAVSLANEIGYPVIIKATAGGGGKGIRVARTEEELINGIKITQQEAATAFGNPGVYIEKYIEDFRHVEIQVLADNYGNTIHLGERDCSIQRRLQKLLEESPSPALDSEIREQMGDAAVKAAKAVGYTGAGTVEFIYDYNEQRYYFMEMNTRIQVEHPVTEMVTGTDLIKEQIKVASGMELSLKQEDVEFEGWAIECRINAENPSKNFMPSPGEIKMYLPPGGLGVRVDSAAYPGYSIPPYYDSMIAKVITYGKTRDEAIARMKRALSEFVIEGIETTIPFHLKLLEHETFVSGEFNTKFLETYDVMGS

T2: Strep-tagged AccB (Bacillus subtilis 168, UniProt P49786 1-159)
T2 sequence (looked up): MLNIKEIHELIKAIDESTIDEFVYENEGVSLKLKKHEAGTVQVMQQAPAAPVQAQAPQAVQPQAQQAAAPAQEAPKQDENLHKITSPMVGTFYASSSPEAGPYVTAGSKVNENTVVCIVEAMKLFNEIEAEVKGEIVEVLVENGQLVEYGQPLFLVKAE

T3: Strep-tagged AccC (Bacillus subtilis 168, UniProt P49787 1-450)
T3 sequence (looked up): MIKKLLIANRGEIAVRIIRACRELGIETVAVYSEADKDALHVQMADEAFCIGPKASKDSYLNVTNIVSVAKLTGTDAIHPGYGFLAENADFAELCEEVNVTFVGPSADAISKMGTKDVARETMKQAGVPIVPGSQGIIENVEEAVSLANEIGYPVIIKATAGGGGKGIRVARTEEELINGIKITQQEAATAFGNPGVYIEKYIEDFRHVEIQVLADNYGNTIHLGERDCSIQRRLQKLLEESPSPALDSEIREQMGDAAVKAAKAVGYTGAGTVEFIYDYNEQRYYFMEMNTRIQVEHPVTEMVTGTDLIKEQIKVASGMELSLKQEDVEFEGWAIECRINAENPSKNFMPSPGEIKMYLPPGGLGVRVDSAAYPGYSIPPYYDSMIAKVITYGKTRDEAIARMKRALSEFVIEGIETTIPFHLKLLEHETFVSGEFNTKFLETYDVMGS

B1: GST-tagged RfaA (natural protein, Bacillus subtilis 168, UniProt P54519 1-135, looked up)
chain: MKDNSLLKMDHEDTHLGKVEIAPEVIEVIAGIAASEVDGVAEMRGNFATGVVERFGKVNHGKGVKVDLADDGITIDVYCVVTFGVSIPKVAASVQENIRQTLLNMTSLSINEINIHIVGIQFDTKAQEVQIDEEM
B2: 6xHis-SUMO-RfaA (natural protein, Bacillus subtilis 168, UniProt P54519 1-135, looked up)
chain: MKDNSLLKMDHEDTHLGKVEIAPEVIEVIAGIAASEVDGVAEMRGNFATGVVERFGKVNHGKGVKVDLADDGITIDVYCVVTFGVSIPKVAASVQENIRQTLLNMTSLSINEINIHIVGIQFDTKAQEVQIDEEM

Experiments:
Assay in all cases: pull-down
6xHis-AccC = target: T1, 6xHis-AccC
Strep-tagged AccB = target: T2, Strep-tagged AccB
Strep-tagged AccC = target: T3, Strep-tagged AccC

Row | Binder | binding result (6xHis-AccC) | binding result (Strep-tagged AccB) | binding result (Strep-tagged AccC)
1 | B1 | binds | – | –
2 | B2 | – | binds | binds
